Results published in US20220387586A1 (Hoffmann-La Roche, published 2022).

Columns and labels:
[1] = target: T1, PD1 on PD1+LAG3+ human U2OS cells (UniProt Q15116 25-288); assay: cellular PD1/LAG3 dimerization assay on PD1+LAG3+ U2OS cells, chemoluminescence; the signal needs PD1 and LAG3 bound at once
Method: For this specific interaction, the cytosolic C-terminal ends of both receptors were individually fused to heterologous subunits of a reporter enzyme.
On the next day cell medium was discarded and replaced by fresh medium. Antibody or ligand dilutions were prepared and titrated amounts of indicated (bispecific) antibodies were added and incubated at 37° C. for 2 hours. Next, a substrate/buffer mix (e.g. PathHunterFlash detection reagent) was added and again incubated for 1h. For measuring chemoluminescence induced upon simultaneous binding and dimerization a Tecan infinite reader was used.

[2] = target: full-length human PD1 on cells (human, UniProt Q15116 25-288); assay: cell-based or functional assay
[3] = target: T2, LAG3 on cells (recombinant CHO cells expressing Lag3) (human, UniProt P18627 29-525); assay: cell-based or functional assay
T2 sequence: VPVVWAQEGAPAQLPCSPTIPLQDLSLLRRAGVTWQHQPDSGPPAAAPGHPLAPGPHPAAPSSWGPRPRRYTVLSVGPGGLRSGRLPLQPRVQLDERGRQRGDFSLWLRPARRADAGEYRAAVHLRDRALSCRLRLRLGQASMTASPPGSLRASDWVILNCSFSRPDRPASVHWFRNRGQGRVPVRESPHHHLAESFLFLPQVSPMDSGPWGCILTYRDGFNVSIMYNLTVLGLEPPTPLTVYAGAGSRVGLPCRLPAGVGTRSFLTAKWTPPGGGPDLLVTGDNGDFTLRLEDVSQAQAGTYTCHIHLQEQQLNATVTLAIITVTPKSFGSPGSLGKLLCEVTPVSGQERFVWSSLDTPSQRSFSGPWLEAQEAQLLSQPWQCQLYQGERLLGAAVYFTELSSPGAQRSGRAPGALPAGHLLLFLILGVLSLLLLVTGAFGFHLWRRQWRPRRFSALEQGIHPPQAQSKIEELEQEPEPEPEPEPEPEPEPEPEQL

[4] = target: T1, PD1 on PD1+LAG3+ human U2OS cells; assay: cellular PD1/LAG3 dimerization assay, 7500 PD1+LAG3+ U2OS cells a well, 20 h at 37 °C, chemoluminescence; the signal needs PD1 and LAG3 bound at once
Method: Next, assay plates were equilibrated to room temperature and a substrate/buffer mix (PathHunterFlash detection reagent, Discoverx) was added and again incubated for 4h. For measuring chemoluminescence induced upon simultaneous binding and dimerization a SpectraMax L plate reader (Molecular Devices) was used.

T1 sequence (Q15116 25-288): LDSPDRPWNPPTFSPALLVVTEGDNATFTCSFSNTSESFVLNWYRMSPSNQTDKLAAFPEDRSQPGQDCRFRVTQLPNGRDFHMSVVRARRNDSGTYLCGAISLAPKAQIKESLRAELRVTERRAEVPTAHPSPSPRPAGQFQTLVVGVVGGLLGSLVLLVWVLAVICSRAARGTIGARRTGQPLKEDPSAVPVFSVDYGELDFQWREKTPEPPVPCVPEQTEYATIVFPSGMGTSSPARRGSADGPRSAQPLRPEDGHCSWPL
Chain of full-length human PD1 on cells (Q15116 25-288 limits assumed): as the sequence (Q15116 25-288) above

B1: 0918 (bispecific antibody, human IgG1, kappa, L234A L235A)
heavy chain 1 (aLAG3 25F7 heavy chain, hole, with PD1 0376 VH at the C-terminus): QVQLQQWGAGLLKPSETLSLTCAVYGGSFSDYYWNWIRQPPGKGLEWIGEINHNGNTNSNPSLKSRVTLSLDTSKNQFSLKLRSVTAADTAVYYCAFGYSDYEYNWFDPWGQGTLVTVSSASTKGPSVFPLAPSSKSTSGGTAALGCLVKDYFPEPVTVSWNSGALTSGVHTFPAVLQSSGLYSLSSVVTVPSSSLGTQTYICNVNHKPSNTKVDKKVEPKSCDKTHTCPPCPAPEAAGGPSVFLFPPKPKDTLMISRTPEVTCVVVDVSHEDPEVKFNWYVDGVEVHNAKTKPREEQYNSTYRVVSVLTVLHQDWLNGKEYKCKVSNKALGAPIEKTISKAKGQPREPQVCTLPPSRDELTKNQVSLSCAVKGFYPSDIAVEWESNGQPENNYKTTPPVLDSDGSFFLVSKLTVDKSRWQQGNVFSCSVMHEALHNHYTQKSLSLSPGGGGGSGGGGSGGGGSGGGGSEVQLLESGGGLVQPGGSLRLSCAASGFSFSSYTMSWVRQAPGKGLEWVATISGGGRDIYYPDSVKGRFTISRDNSKNTLYLQMNSLRAEDTAVYYCVLLTGRVYFALDSWGQGTLVTVSS
heavy chain 2 (aLAG3 25F7 heavy chain, knob, with PD1 0376 VL at the C-terminus): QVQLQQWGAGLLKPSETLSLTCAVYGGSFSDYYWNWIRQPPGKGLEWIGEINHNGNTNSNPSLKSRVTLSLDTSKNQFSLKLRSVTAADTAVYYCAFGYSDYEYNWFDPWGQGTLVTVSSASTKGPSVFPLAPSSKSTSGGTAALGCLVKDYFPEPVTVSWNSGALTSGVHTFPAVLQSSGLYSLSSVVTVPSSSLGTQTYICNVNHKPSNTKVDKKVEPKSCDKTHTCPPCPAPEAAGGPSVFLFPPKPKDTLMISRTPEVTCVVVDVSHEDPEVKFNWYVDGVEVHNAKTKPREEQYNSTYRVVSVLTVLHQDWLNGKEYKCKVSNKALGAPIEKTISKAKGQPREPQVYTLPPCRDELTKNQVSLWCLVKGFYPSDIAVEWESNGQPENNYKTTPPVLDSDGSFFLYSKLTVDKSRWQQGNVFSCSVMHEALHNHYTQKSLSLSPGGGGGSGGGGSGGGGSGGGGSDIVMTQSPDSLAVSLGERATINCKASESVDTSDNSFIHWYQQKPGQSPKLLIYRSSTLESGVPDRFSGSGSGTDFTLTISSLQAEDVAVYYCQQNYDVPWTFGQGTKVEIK
light chain (aLAG3 25F7): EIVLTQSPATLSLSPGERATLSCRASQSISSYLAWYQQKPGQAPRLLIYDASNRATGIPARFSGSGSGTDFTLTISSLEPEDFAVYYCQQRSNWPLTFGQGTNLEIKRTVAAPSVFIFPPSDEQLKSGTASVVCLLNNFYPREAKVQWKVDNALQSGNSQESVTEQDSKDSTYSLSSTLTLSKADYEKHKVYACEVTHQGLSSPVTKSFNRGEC
notes: also called PD1/LAG3 0918
EC50 (read off the curve) [1]: ~0.4 µg/mL

B2: PD1/LAG3 0725 (bispecific antibody, human IgG1, kappa, L234A L235A)
heavy 1: not shown
heavy 2: DKTHTCPPCPAPEAAGGPSVFLFPPKPKDTLMISRTPEVTCVVVDVSHEDPEVKFNWYVDGVEVHNAKTKPREEQYNSTYRVVSVLTVLHQDWLNGKEYKCKVSNKALGAPIEKTISKAKGQPREPQVCTLPPSRDELTKNQVSLSCAVKGFYPSDIAVEWESNGQPENNYKTTPPVLDSDGSFFLVSKLTVDKSRWQQGNVFSCSVMHEALHNHYTQKSLSLSPGKGGGGSGGGGSEVQLLESGGGLVQPGGSLRLSCAASGFIFDDYTMNWVRQAPGKGLEWVAVISWDGGGTYYTDSVKGRFTISRDDFKNTLYLQMNSLRAEDTAVYYCAKGLTDTTLYGSDYWGQGTLVTVSSASTKGPSVFPLAPSSKSTSGGTAALGCLVEDYFPEPVTVSWNSGALTSGVHTFPAVLQSSGLYSLSSVVTVPSSSLGTQTYICNVNHKPSNTKVDEKVEPKSC
light 1: EVQLLESGGGLVQPGGSLRLSCAASGFSFSSYTMSWVRQAPGKGLEWVATISGGGRDIYYPDSVKGRFTISRDNSKNTLYLQMNSLRAEDTAVYYCVLLTGRVYFALDSWGQGTLVTVSSASVAAPSVFIFPPSDEQLKSGTASVVCLLNNFYPREAKVQWKVDNALQSGNSQESVTEQDSKDSTYSLSSTLTLSKADYEKHKVYACEVTHQGLSSPVTKSFNRGEC
light 2: not shown
notes: 1+1 trans format: LAG3 Fab fused to the C-terminus of the Fc hole chain
EC50 [nM], PD-1 & LAG-3 combo reporter assay (NFAT luciferase) [2]: 2.2 nM
EC50 [nM], PD-1 & LAG-3 combo reporter assay (NFAT luciferase) [3]: 2.2 nM
EC50 (read off the curve) [4]: ~0.06 nM
